{
  "source": "the DeepSol protein solubility set",
  "data": [
    {"experiment": "soluble on expression in E. coli; label from the status in PepcDB or PDB records", "values": [
      {"sequence": "MAGDPMMSITIEQIRGALAGVADPQTGLELNVCVKDRDIHLAADPAALTIELGYPAGGVADSVRALAGAALAAAGLGAVRVAVTWNIIAHAVQPGLKPLPQVRNIIAVASGKGGVGKSTTAVNLALALAAEGARAGLLDADIYGPSVPAMLGLAGRPESRDNKTMEPLVGHGLQANSIGLLIDADAPAIWRGPMVTQALEQLLRQTNWRDLDYLVVDMPPGTGDIALTLAQKVPVAGAVIVTTPQDIALLDARKGLRMFQKVHVPILGVVENMAVHICPQCGHAEHIFGAGGGRRVAEQYEVPWLGSLPLQRAIREQTDAGNPTVAAEPESEVAGIYRDIARRVAARIAGLPRDMAGKLPAVVVRPALEHHHHHH", "soluble on expression in E. coli": "not soluble"},
      {"sequence": "MRFFLSPPHMGGNELKYIEEVFKSNYIAPLGEFVNRFEQSVKDYSKSENALALNSATAALHLALRVAGVKQDDIVLASSFTFIASVAPICYLKAKPVFIDCDETYNIDVDLLKLAIKECEKKPKALILTHLYGNAAKMDEIVEICKENDIVLIEDAAEALGSFYKNKALGTFGEFGVYSYNGNKIITTSGGGMLIGKNKEKIEKARFYSTQARENCLHYEHLDYGYNYRLSNVLGAIGVAQMEVLEQRVLKKREIYEWYKEFLGEYFSFLDELENSRSNRWLSTALINFDKNELNACQKDINISQKNITLHPKISKLIEDLKNKQIETRPLWKAMHTQEVFKGAKAYLNGNSELFFQKGICLPSGTAMSKDDVYEISKLILKSIKAGSHHHHHH", "soluble on expression in E. coli": "soluble"},
      {"sequence": "MKEKIALITGVTGQDGSYLAEYLLNLGYEVHGLKRRSSSINTSRIDHLYEDLHSDHKRRFFLHYGDMTDSSNLIHLIATTKPTEIYNLAAQSHVKVSFETPEYTANADGIGTLRILEAMRILGLEKKTRFYQASTSELYGEVLETPQNENTPFNPRSPYAVAKMYAFYITKNYREAYNLFAVNGILFNHESRVRGETFVTRKITRAASAIAYNLTDCLYLGNLDAKRDWGHAKDYVKMMHLMLQAPIPQDYVIATGKTTSVRDFVKMSFEFIGINLEFQNTGIKEIGLIKSVDEKRANALKLNLSHLKKGQIVVRIDERYFRPTEVDLLLGDPTKAEKELDWVREYDLKELVKDMLEYDLKECQKNLYLQDGGYILRNFYE", "soluble on expression in E. coli": "soluble"},
      {"sequence": "MGSDKIHHHHHHMTSGLHISTSFDSGAIEVDALDHADDIRLRIRADSHADFRQWFHFRLQGAAGQACRLQFLNAGDCTYPDGWRDYRAVASYDRANWFRVPTRFDGQVLTVEFTPQHDSVWFAYFEPYPEERHLSLLATCQRSPLAKLSHLGSTVDGRDMTRVTVGQPGPGKKTIWMIARQHPGESMAEWFCEGVLQRLTGTGMWAHDPVARKLLESAVFHIVPNMNPDGSARGNLRTNAAGANLNREWMTPSPETSPEVWHVRRAIEATGCDLFFDIHGDEGLPYNFVAGSEMLPSFSEKQREEQTRFIEAFKRVTPDFQDVHGYAASKYNADALKLASKYVGHTFGCLSLTLEMPFKDNADLPDATVGWNGARSALLGTAMLEAILNFLG", "soluble on expression in E. coli": "not soluble"},
      {"sequence": "MSLKAIWHGGFIYTMLEEGDRTEAVYVEDGVIKGTGSYERLKEKYGSPETEEISLNGAVMFPGFVDSHLHLIGHGEKQLQLDLSALTSKDSILQAAKERERQLPKNDWLIGEGWNENQFETPDYLTKHDLDRLFPDRPVLLKRICRHAIAVNSAALQAAGISRNTPDPDGGVIVKDANGEPTGLLFDKAQDLILKAVPPVSQHYVDEALTAAIKDCWTKGLTGGHSEDLSYYGDVSVPMKAYEKAAAGGKYPFRCHLLVHHEAVDRWEQLEKLSGPYVEFGAMKIFADGALGGRTALLKEPYQDDPSTNGVQVHDDETLGRLIRKAREKGMEVAVHAIGDLAFEKVLNAIEKHPPKNGRHDRLIHAQVLDNELIERAARMPIALDLQPHFVASDFPWVIDRLGKDRMKTAFAWKTLISKGILCAGGSDAPIEPVDPLLGIQSAVLRKSSHEQNGPSYNESECLPVYEAIKLYTEGSAGIIYKEKSRGKIAEGYDADFTVLSGDPFAIDPAQLHLLEIKKTVINGQIVYEKSEGHHHHHH", "soluble on expression in E. coli": "soluble"},
      {"sequence": "MKISRETLHQLIENKLCQAGLKREHAATVAEVLVYADARGIHSHGAVRVEYYAERISKGGTNREPEFRLEETGPCSAILHADNAAGQVAAKMGMEHAIKTAQQNGVAVVGISRMGHSGAISYFVQQAARAGFIGISMCQSDPMVVPFGGAEIYYGTNPLAFAAPGEGDEILTFDMATTVQAWGKVLDARSRNMSIPDTWAVDKNGVPTTDPFAVHALLPAAGPKGYGLMMMIDVLSGVLLGLPFGRQVSSMYDDLHAGRNLGQLHIVINPNFFSSSELFRQHLSQTMRELNAITPAPGFNQVYYPGQDQDIKQRKAAVEGIEIVDDIYQYLISDALYNTSYETKNPFAQLEHHHHHH", "soluble on expression in E. coli": "soluble"},
      {"sequence": "GMADAPIDIFQSILSRKSIRAFTDQPVTQETIREILKLAARAPSGTNLQPWQVIVLTGKILQKVGQELSQLVLSGIKGEREYHYYPRQWREPYLSRRRKVGLDLYKSLGIQKGDQEKMLHQKAKNFLFYGAPVGLLFTIDHDMEMGSWLDLGMFMQTIMLAARGFGLDTCAQAAFADYHKQIRSLLSVPSDRHIICGMALGYRDMNAPENNFETEREPIDNFVHFIKSYP", "soluble on expression in E. coli": "soluble"},
      {"sequence": "MHVFYSEERRGNLLILREGEVKHFRVRRIEKDEEFGVIHEGKIYVCKVRREDKREISCEIVEELETKLPPKDITLYQSVTVDLKTMDTIVRQATELGVLTFVPIISERSFQKEEAILKKTEKWKRIVIEAMKQSRRPIPMEIKKPVRLSDLIPESEENIILDNFYEGVKPKDVNLEAKTYSVVVGPEGGFSKRESQILREKGFKSVLLEPYTLRTETAVVSIVSILMNFLEHHHHHH", "soluble on expression in E. coli": "soluble"},
      {"sequence": "ATLKQLDGIHVTILHKEEGAGLGFSLAGGADLENKVITVHRVFPNGLASQEGTIQKGNEVLSINGKSLKGTTHHDALAILRQAREPRQAVIVTRKLTPEAMPDLNS", "soluble on expression in E. coli": "soluble"},
      {"sequence": "MRGLDYRWIEALDSVVSKGSFERAAEQLFISQSAVSQRIKQLEKYLAQPVLIREQPPRPTLVGKKLLGLYRRVCLIEQELVPELTNQEHVRPVSMSIATNADSLATWLLPALDKVMKSRQVELNLVIYGESRTLDKLKNGEVVGAISLEPQPITGCSAEYLGQMEYLCVASPEFYQKYFAKGVTPRSLIKAPAVSYDQYDELHNKFLWDYFAVPRDKVINHTVGSSEAFVRLALSGAAYCLIPRLQIISELESGALINMTPDFMLSYPIFWHHWQLETGVLLEISEAITAYAKSVLPQ", "soluble on expression in E. coli": "not soluble"},
      {"sequence": "MVVFEITILGANGGPTEYGTQCFILKPARTEDPELIAVDGGAGMYQLREMLVQGRNENEGDDELVPSFYEHDREPIEFFIDSKLNIQKGLSKSLLQSLKRQGEHFESANTMKKTYEVFQGITDYYITHPHLDHISGLVVNSPSIYEQENSKKKTIWGLPHTIDVLQKHVFNDLIWPDLTAERSRKLKLKCLNPKEVQKCTIFPWDVIPFKVHHGIGVKTGAPVYSTFYIFRDRKSKDCIIVCGDVEQDRRESEESLLEEFWSYVAENIPLVHLKGILVECSCPLSSKPEQLYGHLSPIYLINELSNLNTLYNSSKGLSGLNVIVTHVKSTPAKRDPRLTILEELRFLAEERNLGDLRISIALEGHTLFL", "soluble on expression in E. coli": "not soluble"},
      {"sequence": "MKQGLQLRLSQQLAMTPQLQQAIRLLQLSTLELQQELQQALENNPLLEQTDLHDEIDTQQPQDNDPLDTADALEQKEMPEELPLDASWDEIYTAGTPSGPSGDYIDDELPVYQGETTQSLQDYLMWQVELTPFSDTDRAIATSIVDAVDDTGYLTVSLDEIRESMGDVEVDLDEVEAVLKRIQRFDPVGVAAKDLRDCLLIQLSQFDKSTPWLEEARLIICDHLDLLANHDFRTLMRVTRLKEEVLKEAVNLIQSLDPRPGQSIQTGEPEYVIPDVLVRKHNGRWTVELNSDSIPRLQINQHYAAMCNSARNDADSQFIRSNLQDAKWLIKSLESRNDTLLRVSRCIVEQQQAFFEQGEEYMKPMVLADIAQAVEMHESTISRVTTQKYLHSPRGIFELKYFFSSHVNTEGGGEASSTAIRALVKKLIAAENPAKPLSDSKLTSLLSEQGIMVARRTVAKYRESLSIPPSNQRKQLV", "soluble on expression in E. coli": "not soluble"},
      {"sequence": "MSLTASIPINSNLIVHVGNNVRIDAFGLKARLTGDLNVVQDKQGLGLNGQINIPEGRFHAYGQDLIVRKGELLFSGPPDQPYLNIEAIRNPDATEDDVIAGVRVTGLADEPKAEIFSDPAMSQQAALSYLLRGQGLESDQSDSAAMTSMLIGLGVAQSGQIVGKIGETFGVSNLALDTQGVGDSSQVVVSGYVLPGLQVKYGVGIFDSIATLTLRYRLMPKLYLEAVSGVDQALDLLYQFEFEGHHHHHH", "soluble on expression in E. coli": "not soluble"}
    ]}
  ]
}
